Reference: patent US20210269519A1 (University of Texas, published 2021)
Values belong to the molecule of their own block, whether it stands above or below them.

Columns and labels:
[1] = target: Flag tagged-human Lmbr1l (limb region 1 like, LMBR1L) (human) (UniProt Q6UX01); assay: anti-FLAG co-IP from HEK293T lysate + LC-MS/MS, vs empty vector
[2] = target: T1, Flag tagged-human Lmbr1l (limb region 1 like, LMBR1L) (human, UniProt Q6UX01 1-489); assay: as above
T1 construct: It carries a Flag tag; also called h-LMBR1L; LIMR
T1 sequence: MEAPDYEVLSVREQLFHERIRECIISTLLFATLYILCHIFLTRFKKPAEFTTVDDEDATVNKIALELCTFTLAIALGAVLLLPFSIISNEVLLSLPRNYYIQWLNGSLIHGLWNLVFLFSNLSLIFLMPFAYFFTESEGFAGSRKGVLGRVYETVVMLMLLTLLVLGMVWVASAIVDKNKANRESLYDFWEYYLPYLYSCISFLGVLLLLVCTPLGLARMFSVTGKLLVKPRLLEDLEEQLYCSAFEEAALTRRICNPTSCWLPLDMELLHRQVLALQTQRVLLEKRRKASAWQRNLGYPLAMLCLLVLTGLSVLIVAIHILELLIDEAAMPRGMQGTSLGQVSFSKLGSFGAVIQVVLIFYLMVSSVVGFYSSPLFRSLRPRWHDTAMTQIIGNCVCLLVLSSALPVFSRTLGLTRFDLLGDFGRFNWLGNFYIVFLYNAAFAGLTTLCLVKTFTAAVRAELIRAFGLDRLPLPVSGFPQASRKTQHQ
Procedure: We sought to understand the immune function of LMBRL1 by identifying LMBR1L-interacting proteins using co-immunoprecipitation (co-IP) combined with mass spectrometry (MS) analysis. Among the 1,623 candidate proteins identified as putative LMBR1L interactors (Dataset S1), 25 proteins were >50-fold more abundant in the LMBR1L co-IP product relative to empty vector control (Table 1).
Co-immunoprecipitation and mass spectrometry were performed to identify Lmbr1l-interacting proteins as described below. Transfection was performed in HEK293T cells (ATCC) using Lipofectamine 2000 reagent (Life technologies) with plasmid encoding Flag tagged-human Lmbr1l or empty vector control. Forty-eight hours after transfection, cells were harvested in NP-40 lysis buffer for 45 min at 4° C. […] The proteins were eluted with SDS sample buffer and heated at 95° C. for 10 min. Lysates were loaded onto 12% (wt/vol) SDS-PAGE gel and run 1 cm into the separation gel. The gel was stained with Coomassie blue (Thermo Fisher) and whole stained lanes were subjected to mass spectrometry analysis (LCMS/MS) as described previously (33).

FLAG-tagged β-catenin = target: T2, FLAG-tagged β-catenin
T2 chain: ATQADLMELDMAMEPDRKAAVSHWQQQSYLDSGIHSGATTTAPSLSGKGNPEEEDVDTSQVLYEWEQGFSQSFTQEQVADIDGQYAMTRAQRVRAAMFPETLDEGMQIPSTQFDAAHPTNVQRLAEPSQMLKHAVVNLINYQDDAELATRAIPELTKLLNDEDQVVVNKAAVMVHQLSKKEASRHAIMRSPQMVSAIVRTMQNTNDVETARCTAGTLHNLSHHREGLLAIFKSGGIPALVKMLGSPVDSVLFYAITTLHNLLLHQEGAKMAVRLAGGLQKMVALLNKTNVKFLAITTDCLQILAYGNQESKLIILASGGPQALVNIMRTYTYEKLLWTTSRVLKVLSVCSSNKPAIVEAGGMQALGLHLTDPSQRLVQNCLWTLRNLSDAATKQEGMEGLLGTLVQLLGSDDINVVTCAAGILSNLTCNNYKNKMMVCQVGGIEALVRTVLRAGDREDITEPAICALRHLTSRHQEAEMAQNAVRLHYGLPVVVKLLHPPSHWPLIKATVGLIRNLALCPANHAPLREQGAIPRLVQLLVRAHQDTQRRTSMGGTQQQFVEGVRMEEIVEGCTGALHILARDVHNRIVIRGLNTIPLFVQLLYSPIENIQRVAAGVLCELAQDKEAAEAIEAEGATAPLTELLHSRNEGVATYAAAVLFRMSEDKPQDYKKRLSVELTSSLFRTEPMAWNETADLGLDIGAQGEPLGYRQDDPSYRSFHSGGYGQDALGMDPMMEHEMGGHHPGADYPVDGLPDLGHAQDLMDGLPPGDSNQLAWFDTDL

Molecule: IARS (from UniProt J3KR24 1-1121) (enzyme)
Ratio h-LMBR1L/h-vector [1]: 106

Molecule: SRP68 (from UniProt Q9UHB9 1-627)
Ratio h-LMBR1L/h-vector [1]: 198

Molecule: NDUFA2 (from UniProt O43678 2-99)
Ratio h-LMBR1L/h-vector [1]: 107

Molecule: COPA (from UniProt P53621 1-1224)
Ratio h-LMBR1L/h-vector [1]: 110

Molecule: NCAPD2 (from UniProt Q15021 1-1401)
Ratio h-LMBR1L/h-vector [1]: 169

Molecule: USP9X (from UniProt Q93008 1-2554) (enzyme)
Ratio h-LMBR1L/h-vector [1]: 51.6

Molecule: RPN1 (from UniProt P04843 24-607)
Ratio h-LMBR1L/h-vector [1]: 118

Molecule: PTPLAD1
Ratio h-LMBR1L/h-vector [1]: 87.6

Molecule: IMMT
Ratio h-LMBR1L/h-vector [1]: 100

Molecule: CKAP4 (from UniProt Q07065 1-602)
Ratio h-LMBR1L/h-vector [1]: 79.5

Second part, led by results:

Ratio h-LMBR1L/h-vector [1]: 67.3
Molecule: PDCD6IP (from UniProt Q8WUM4 2-868)

Ratio h-LMBR1L/h-vector [1]: 58.1
Molecule: EIF4G1 (from UniProt E7EUU4 1-1560)

Ratio h-LMBR1L/h-vector [1]: 87
Molecule: TMEM33 (from UniProt P57088 2-247)

Ratio h-LMBR1L/h-vector [1]: 110
Molecule: GAPVD1 (from UniProt Q14C86 1-1478)

Ratio h-LMBR1L/h-vector [1]: 198
Molecule: GANAB (from UniProt Q14697 29-944) (enzyme)

Ratio h-LMBR1L/h-vector [1]: 87.6
Molecule: FKBP8 (from UniProt Q14318 1-413)

Ratio h-LMBR1L/h-vector [1]: 231
Molecule: SRPRB (from UniProt Q9Y5M8 1-271)

Ratio h-LMBR1L/h-vector [1]: 65.6
Molecule: STT3A (from UniProt P46977 1-705) (enzyme)

Ratio h-LMBR1L/h-vector [1]: 58.1
Molecule: MAGED1 (from UniProt Q9Y5V3 1-778)

Ratio h-LMBR1L/h-vector [1]: 81.9
Molecule: AAAS (from UniProt F8VZ44 1-422)

Ratio h-LMBR1L/h-vector [1]: 97.8
Molecule: TMEM209 (from UniProt Q96SK2 1-561)

Ratio h-LMBR1L/h-vector [2]: 51.7 ratio
B1: glycoprotein 78 (GP78; known as AMFR) (enzyme, UniProt Q9UKV5 1-643, looked up)
chain: MPLLFLERFPWPSLRTYTGLSGLALLGTIISAYRALSQPEAGPGEPDQLTASLQPEPPAPARPSAGGPRARDVAQYLLSDSLFVWVLVNTACCVLMLVAKLIQCIVFGPLRVSERQHLKDKFWNFIFYKFIFIFGVLNVQTVEEVVMWCLWFAGLVFLHLMVQLCKDRFEYLSFSPTTPMSSHGRVLSLLVAMLLSCCGLAAVCSITGYTHGMHTLAFMAAESLLVTVRTAHVILRYVIHLWDLNHEGTWEGKGTYVYYTDFVMELTLLSLDLMHHIHMLLFGNIWLSMASLVIFMQLRYLFHEVQRRIRRHKNYLRVVGNMEARFAVATPEELAVNNDDCAICWDSMQAARKLPCGHLFHNSCLRSWLEQDTSCPTCRMSLNIADNNRVREEHQGENLDENLVPVAAAEGRPRLNQHNHFFHFDGSRIASWLPSFSVEVMHTTNILGITQASNSQLNAMAHQIQEMFPQVPYHLVLQDLQLTRSVEITTDNILEGRIQVPFPTQRSDSIRPALNSPVERPSSDQEEGETSAQTERVPLDLSPRLEETLDFGEVEVEPSEVEDFEARGSRFSKSADERQRMLVQRKDELLQQARKRFLNKSSEDDAASESFLPSEGASSDPVTLRRRMLAAAAERRLQKQQTS
notes: Identified by LC-MS/MS in the LMBR1L co-IP; also called AMFR (GP78)
ubiquitination of β-catenin (anti-FLAG IP, anti-ubiquitin immunoblot) (FLAG-tagged β-catenin): Co-expression of FLAG-tagged β-catenin and HA-tagged GP78 strongly promoted the ubiquitination of β-catenin

Ratio h-LMBR1L/h-vector [2]: 71.2 ratio
B2: UBX domain-containing protein 8 (UBXD8, known as FAF2) (other, UniProt Q96CS3 2-445, looked up)
chain: AAPEERDLTQEQTEKLLQFQDLTGIESMDQCRHTLEQHNWNIEAAVQDRLNEQEGVPSVFNPPPSRPLQVNTADHRIYSYVVSRPQPRGLLGWGYYLIMLPFRFTYYTILDIFRFALRFIRPDPRSRVTDPVGDIVSFMHSFEEKYGRAHPVFYQGTYSQALNDAKRELRFLLVYLHGDDHQDSDEFCRNTLCAPEVISLINTRMLFWACSTNKPEGYRVSQALRENTYPFLAMIMLKDRRMTVVGRLEGLIQPDDLINQLTFIMDANQTYLVSERLEREERNQTQVLRQQQDEAYLASLRADQEKERKKREERERKRRKEEEVQQQKLAEERRRQNLQEEKERKLECLPPEPSPDDPESVKIIFKLPNDSRVERRFHFSQSLTVIHDFLFSLKESPEKFQIEANFPRRVLPCIPSEEWPNPPTLQEAGLSHTEVLFVQDLTDE
notes: Identified by LC-MS/MS in the LMBR1L co-IP; also called FAF2 (UBXDB8)

Ratio h-LMBR1L/h-vector [2]: 297 ratio
B3: ubiquitin associated domain containing 2 (UBAC2) (other, UniProt Q8NBM4 36-344, looked up)
chain: HCQKLFVYDLHAVKNDFQIWRLICGRIICLDLKDTFCSSLLIYNFRIFERRYGSRKFASFLLGSWVLSALFDFLLIEAMQYFFGITAASNLPSGFLAPVFALFVPFYCSIPRVQVAQILGPLSITNKTLIYILGLQLFTSGSYIWIVAISGLMSGLCYDSKMFQVHQVLCIPSWMAKFFSWTLEPIFSSSEPTSEARIGMGATLDIQRQQRMELLDRQLMFSQFAQGRRQRQQQGGMINWNRLFPPLRQRQNVNYQGGRQSEPAAPPLEVSEEQVARLMEMGFSRGDALEALRASNNDLNVATNFLLQH
notes: Identified by LC-MS/MS in the LMBR1L co-IP
